Source: US20220411492A1 (QILU PHARMACEUTICAL, published 2022)
Like-named read-outs stand apart in the source and are kept apart here.

How the values were obtained:
[1] = molecular target: murine CLDN18.2 (mCLDN18.2) (murine) (UniProt P56857); assay: FACS, HEK293-mCLDN18.2 cells
[2] = molecular target: T1, human Claudin 18.2 (hCLDN18.2) (human, UniProt P56856-2 1-261); assay: FACS, PDX-hCLDN18.2 gastric cancer tumor tissue-derived cells
[3] = molecular target: T1, human Claudin 18.2 (hCLDN18.2); assay: FACS, HEK293-hCLDN18.2 cells
[4] = molecular target: murine CLDN18.2 (mCLDN18.2) (murine) (UniProt P56857); assay: FACS, HEK293-mCLDN18.2 cells; remark: listed apart in the source
[5] = molecular target: T1, human Claudin 18.2 (hCLDN18.2); assay: FACS, PDX-hCLDN18.2 gastric cancer tumor tissue-derived cells; remark: listed apart in the source
[6] = molecular target: T1, human Claudin 18.2 (hCLDN18.2); assay: FACS, HEK293-hCLDN18.2 cells; remark: listed apart in the source
[7] = molecular target: T1, human Claudin 18.2 (hCLDN18.2); assay: cell-based or functional assay
[8] = molecular target: T1, human Claudin 18.2 (hCLDN18.2); assay: cell-based or functional assay; remark: listed apart in the source
[9] = molecular target: T1, human Claudin 18.2 (hCLDN18.2); assay: FACS, HEK293-hCLDN18.2 cells; remark: listed apart in the source
[10] = molecular target: T1, human Claudin 18.2 (hCLDN18.2); assay: cell-based or functional assay; remark: listed apart in the source
[11] = molecular target: T1, human Claudin 18.2 (hCLDN18.2); assay: FACS, HEK293-hCLDN18.2 cells
Procedure: (§1) Using flow cytometry measurement, the mean fluorescence intensity (hereinafter referred to as MFI) for each concentration was calculated by the software, and then the half binding concentration (EC₅₀) and the mean maximum fluorescence intensity (Top MFI) were calculated by GraphPad software, and the results were shown in Table 11.

[12] = molecular target: T1, human Claudin 18.2 (hCLDN18.2); assay: cell-based or functional assay; remark: listed apart in the source
[13] = molecular target: T1, human Claudin 18.2 (hCLDN18.2); assay: FACS, PDX-hCLDN18.2 gastric cancer tumor tissue-derived cells
Procedure: as §1

chimeric antibody ch-175D10 from patent CN103509110B
EC50 [1]: 0.136 µg/mL | Mean maximum fluorescence intensity (Top MFI) [1]: 86400 MFI | EC50 [2]: 24.9 nM | Mean maximum fluorescence intensity (Top MFI) [2]: 5700 MFI | EC50 [3]: 0.881 nM | Mean maximum fluorescence intensity (Top MFI) [3]: 5450 MFI | EC50 [4]: 1.01 nM | Mean maximum fluorescence intensity (Top MFI) [4]: 4190 MFI | EC50 [5]: 63.9 nM | Mean maximum fluorescence intensity (Top MFI) [5]: 7160 MFI | EC50 [6]: 0.156 µg/mL | Mean maximum fluorescence intensity (Top MFI) [6]: 2840 MFI | ADCC EC50 [7]: 0.021 µg/mL | ADCC Maximum lysis (%) [7]: 31.8% | CDC EC50 [7]: 1.19 µg/mL | CDC Maximum lysis (%) [7]: 87.4% | CDC EC50 [8]: 1.55 µg/mL | CDC Maximum lysis (%) [8]: 87.8% | Mean maximum fluorescence intensity (Top MFI) [9]: 26900 MFI

B1: hu253C4-N31Q-1 (antibody, V domains shown)
VH: QVQLVQSGAEVKKPGASVKVSCKASGYIFTSYWIHWVRQAPGQGLEWMGRFYPGTGTAYYNENFEGRVTMTRDTSISTAYMELSRLRSDDTAVYYCAREGYGKGNSMDYWGQGTTVTVSS
VL: DIVMTQSPDSLAVSLGERATINCKSSQSLLQSGNQKNYLTWYQQKPGQPPKLLIYWASTRESGVPDRFSGSGSGTDFTLTISSLQAEDVAVYYCQNDYYFPFTFGGGTKLEIK
EC50 [2]: 12 nM | Mean maximum fluorescence intensity (Top MFI) [2]: 16300 MFI | EC50 [4]: 0.19 µg/mL | Mean maximum fluorescence intensity (Top MFI) [4]: 65000 MFI | ADCC EC50 [8]: 0.024 µg/mL | ADCC Maximum lysis (%) [8]: 54.9% | CDC EC50 [8]: 0.175 µg/mL | CDC Maximum lysis (%) [8]: 96.3% | EC50 [9]: 0.216 nM | Mean maximum fluorescence intensity (Top MFI) [9]: 23000 MFI

B2: hu253C4-N31Q-3 (antibody, V domains shown)
VH: QVQLVQSGAEVKKPGASVKVSCKTSGYIFTSYWIHWVRQAPGQGLEWMGRFYPGTGTAYYNENFEGRVTLTADTSISTAYMELSRLRSDDTAVYYCTREGYGKGNSMDYWGQGTTVTVSS
VL: DIVMTQSPDSLAVSLGERATINCKSSQSLLQSGNQKNYLTWYQQKPGQPPKLLIYWASTRESGVPDRFSGSGSGTDFTLTISSLQAEDVAVYYCQNDYYFPFTFGGGTKLEIK
EC50 [2]: 25.6 nM | Mean maximum fluorescence intensity (Top MFI) [2]: 21600 MFI | EC50 [4]: 0.03 µg/mL | Mean maximum fluorescence intensity (Top MFI) [4]: 42100 MFI | ADCC EC50 [8]: 0.038 µg/mL | ADCC Maximum lysis (%) [8]: 70.3% | CDC EC50 [8]: 0.128 µg/mL | CDC Maximum lysis (%) [8]: 96.1% | EC50 [9]: 0.145 nM | Mean maximum fluorescence intensity (Top MFI) [9]: 18800 MFI

B3: hu299B2-S32A-1 (antibody, V domains shown)
VH: QVQLVQSGAEVKKPGASVKVSCKASGYIFTNYWIHWVRQAPGQGLEWMGRIYPGTGNTYYNEKFTGRVTMTRDTSTSTVYMELSSLRSEDTAVYYCAREGYGKGNSMDYWGQGTTVTVSS
VL: DIVMTQSPDSLAVSLGERATINCKSSQSLLNAGNQKNYLTWYQQKPGQPPKLLIYWASTRESGVPDRFSGSGSGTDFTLTISSLQAEDVAVYYCQNAYYYPYTFGGGTKLEIK
notes: also called humanized antibody hu299B2-S32A
EC50 [4]: 0.201 µg/mL | Mean maximum fluorescence intensity (Top MFI) [4]: 88800 MFI | CDC EC50 [10]: 0.125 µg/mL | CDC Maximum lysis (%) [10]: 99.2% | EC50 [11]: 0.407 nM | Mean maximum fluorescence intensity (Top MFI) [11]: 29500 MFI | ADCC EC50 [12]: 0.022 µg/mL | ADCC Maximum lysis (%) [12]: 57.9% | EC50 [13]: 29.7 nM | Mean maximum fluorescence intensity (Top MFI) [13]: 25200 MFI

B4: hu253C4-N31Q-2 (antibody, V domains shown)
VH: QVQLVQSGAEVKKPGASVKVSCKASGYIFTSYWIHWVRQAPGQGLEWMGRFYPGTGTAYYNENFEGRVTMTRDTSISTAYMELSRLRSDDTAVYYCAREGYGKGNSMDYWGQGTTVTVSS
VL: DIVMTQSPDSLAVSLGERVTLNCKSSQSLLQSGNQKNYLTWYQQKPGQPPKLLIYWASTRESGVPDRFSGSGSGTDFTLTVSSVQAEDVAVYYCQNDYYFPFTFGGGTKLEIK
EC50 [2]: 11.4 nM | Mean maximum fluorescence intensity (Top MFI) [2]: 15600 MFI | EC50 [4]: 0.026 µg/mL | Mean maximum fluorescence intensity (Top MFI) [4]: 36800 MFI | ADCC EC50 [8]: 0.037 µg/mL | ADCC Maximum lysis (%) [8]: 58.8% | CDC EC50 [8]: 0.149 µg/mL | CDC Maximum lysis (%) [8]: 97.5% | EC50 [9]: 0.361 nM | Mean maximum fluorescence intensity (Top MFI) [9]: 29000 MFI

B5: hu299B2-S32A-4 (antibody, V domains shown)
VH: QVQLVQSGAEVKKPGASVKVSCKTSGYIFTNYWIHWVRQAPGQGLEWMGRIYPGTGNTYYNEKFTGRVTLTADTSTSTVYMELSSLRSEDTAVYYCSREGYGKGNSMDYWGQGTTVTVSS
VL: DIVMTQSPDSLAVSLGERATINCKSSQSLLNAGNQKNYLTWYQQKPGQPPKLLIYWASTRESGVPDRFSGSGSGTDFTLTISSLQAEDVAVYYCQNAYYYPYTFGGGTKLEIK
notes: as for B3
EC50 [4]: 0.281 µg/mL | Mean maximum fluorescence intensity (Top MFI) [4]: 84900 MFI | CDC EC50 [10]: 0.123 µg/mL | CDC Maximum lysis (%) [10]: 99.9% | EC50 [11]: 0.318 nM | Mean maximum fluorescence intensity (Top MFI) [11]: 31200 MFI | ADCC EC50 [12]: 0.024 µg/mL | ADCC Maximum lysis (%) [12]: 63.2% | EC50 [13]: 29.3 nM | Mean maximum fluorescence intensity (Top MFI) [13]: 23000 MFI

B6: hu299B2-S32A-2 (antibody, V domains shown)
VH: QVQLVQSGAEVKKPGASVKVSCKASGYIFTNYWIHWVRQAPGQGLEWMGRIYPGTGNTYYNEKFTGRVTMTRDTSTSTVYMELSSLRSEDTAVYYCAREGYGKGNSMDYWGQGTTVTVSS
VL: DIVMTQSPDSLAVSLGERATMNCKSSQSLLNAGNQKNYLTWYQQKPGQPPKLLFYWASTRESGVPDRFSGSGSGTDFTLTISSLQAEDVAVYHCQNAYYYPYTFGGGTKLEIK
notes: as for B3
EC50 [4]: 0.111 µg/mL | Mean maximum fluorescence intensity (Top MFI) [4]: 90400 MFI | CDC EC50 [10]: 0.129 µg/mL | CDC Maximum lysis (%) [10]: 99.7% | EC50 [11]: 0.463 nM | Mean maximum fluorescence intensity (Top MFI) [11]: 36700 MFI | ADCC EC50 [12]: 0.028 µg/mL | ADCC Maximum lysis (%) [12]: 68.1% | EC50 [13]: 24.6 nM | Mean maximum fluorescence intensity (Top MFI) [13]: 22900 MFI

B7: hu299B2-S32A-3 (antibody, V domains shown)
VH: QVQLVQSGAEVKKPGASVKVSCKASGYIFTNYWIHWVRQAPGQGLEWMGRIYPGTGNTYYNEKFTGRVTMTRDTSTSTVYMELSSLRSEDTAVYYCAREGYGKGNSMDYWGQGTTVTVSS
VL: DIVMTQSPDSLAVSLGERVTMNCKSSQSLLNAGNQKNYLTWYQQKPGQPPKLLFYWASTRESGVPDRFSGSGSGTDFTLTISSVQAEDVAVYHCQNAYYYPYTFGGGTKLEIK
notes: as for B3
EC50 [4]: 0.342 µg/mL | Mean maximum fluorescence intensity (Top MFI) [4]: 103000 MFI | CDC EC50 [10]: 0.092 µg/mL | CDC Maximum lysis (%) [10]: 99.8% | EC50 [11]: 0.399 nM | Mean maximum fluorescence intensity (Top MFI) [11]: 40000 MFI | ADCC EC50 [12]: 0.022 µg/mL | ADCC Maximum lysis (%) [12]: 69.1% | EC50 [13]: 26.1 nM | Mean maximum fluorescence intensity (Top MFI) [13]: 24300 MFI
